In article PMC5702047:

Molecular target: TRC40 (rabbit (endogenous in reticulocyte lysate))

cytosolic domain of the WRB receptor (WRBcc) (domain or fragment)
reduction of the integration of Sec61βOPG2 and RAMP4OPG into RMs (N-glycosylation) in vitro, post-translational, with an excess of WRBcc: 50%
